According to patent US5785967:

Tests used:
[1] = biological target: LIF receptors on the surface of DA-1 cells; test: 125I-LIF binding to intact DA-1 cells, phthalate oil separation
[2] = biological target: Human LIF-R encoded by cDNA clone 65 (pHLIFR-65), expressed on transfected COS-7 cells (human); test: 125I-LIF binding to COS cells transfected with LIF-R cDNA clone 65, Scatchard analysis
[3] = biological target: Recombinant human leukemia inhibitory factor (LIF) (human) (UniProt P15018); test: Scatchard analysis, LIF-R/Fc on Protein G Sepharose beads with serial dilutions of 125I-LIF

Ka [1] [M⁻¹] | Ka [2] [M⁻¹] | Ka [3] [M⁻¹] | Substance
7.4e+08 | > 1e+09 |  | Recombinant human leukemia inhibitory factor (LIF) (from UniProt P15018) (ligand)
 |  | 9e+08 | Soluble human LIF-R/Fc homodimer (Fc fusion)
